Columns and labels:
c-myc mRNA = experiment: In vitro mRNA degradation assay with in vitro translated proteins; type: biochemical, human; conditions: in vitro translated protein incubated with HO-1 total RNA for 0.5 and 2 h
Description: In vitro Translation and in vitro mRNA Degradation Assays: In vitro translation was performed using the TNT coupled Reticulocyte Lysate Systems (Promega) using the plasmids pcDNA3.1+(Hygro) as a control, GADD153 expression plasmid, phPNPase^old-35, pΔRPH1, pΔRPH2, pΔRPH1+2 and pΔC-term according to the manufacturer's protocol. Five […] of total RNA from HO-1 cells were incubated with 5 μl of each in vitro translated protein at 37° C. from 0.5 to 2 h. The RNA was repurified using the Qiagen RNeasy mini kit (Qiagen) and Northern blotting was performed.

[1] = molecular target: the molecule itself; experiment: self-association inferred from anti-HA Western blot of fractionated HO-1 cells

B1: pΔRPH1+2: plasmid for ΔRPH1+2 deletion mutant, in vitro translated protein of 31 kDa (protein)
chain: MDSGVPISSAVAGVAIGLVTKTDPEKGEIEDYRLLTDILGIEDYNGDMDFKIAGTNKGITALQADIKLPGIPIKIVMEAIQQASVAKKEILQIMNKTISKPRASRKENGPVVETVQVPLSKRAKFVGPGGYNLKKLQAETGVTISQVDEETFSVFAPTPSVMHEARDFITEICKDDQEQQLEFGAVYTATITEIRDTGVMVKLYPNMTAVLLHNTQLDQRKIKHPTALGLEVGQEIQVKYFGRDPADGRMRLSRKVLQSPATTVVRTLNDRSSIVMGEPISQSSSNSQYPYDVPDYA
In the case of B1, the “degradation of c-myc mRNA” value (c-myc mRNA) is reported as “No degradation”.

B2: pGADD153: unrelated plasmid that expresses a transcription factor (protein, UniProt P35638 1-169, looked up)
DNA damage-inducible …: MAAESLPFSFGTLSSWELEAWYEDLQEVLSSDENGGTYVSPPGNEEEESKIFTTLDPASLAWLTEEEPEPAEVTSTSQSPHSPDSSQSSLAQEEEEEDQGRTRKRKQSGHSPARAGKQRMKEKEQENERKVAQLAEENERLKQEIERLTREVEATRRALIDRMVNLHQA
modifications: expressed from plasmid
notes: unrelated plasmid that expresses a transcription factor
With B2 the “degradation of c-myc mRNA” value (c-myc mRNA) was “No degradation”.

B3: phPNPase^old-35: plasmid expressing full-length HA-tagged hPNPase^OLD-35 protein, in vitro translated for RNA degradation assays (protein, UniProt Q8TCS8 1-783, looked up)
chain: MAACRYCCSCLRLRPLSDGPFLLPRRDRALTQLQVRALWSSAGSRAVAVDLGNRKLEISSGKLARFADGSAVVQSGDTAVMVTAVSKTKPSPSQFMPLVVDYRQKAAAAGRIPTNYLRREIGTSDKEILTSRIIDRSIRPLFPAGYFYDTQVLCNLLAVDGVNEPDVLAINGASVALSLSDIPWNGPVGAVRIGIIDGEYVVNPTRKEMSSSTLNLVVAGAPKSQIVMLEASAENILQQDFCHAIKVGVKYTQQIIQGIQQLVKETGVTKRTPQKLFTPSPEIVKYTHKLAMERLYAVFTDYEHDKVSRDEAVNKIRLDTEEQLKEKFPEADPYEIIESFNVVAKEVFRSIVLNEYKRCDGRDLTSLRNVSCEVDMFKTLHGSALFQRGQTQVLCTVTFDSLESGIKSDQVITAINGIKDKNFMLHYEFPPYATNEIGKVTGLNRRELGHGALAEKALYPVIPRDFPFTIRVTSEVLESNGSSSMASACGGSLALMDSGVPISSAVAGVAIGLVTKTDPEKGEIEDYRLLTDILGIEDYNGDMDFKIAGTNKGITALQADIKLPGIPIKIVMEAIQQASVAKKEILQIMNKTISKPRASRKENGPVVETVQVPLSKRAKFVGPGGYNLKKLQAETGVTISQVDEETFSVFAPTPSAMHEARDFITEICKDDQEQQLEFGAVYTATITEIRDTGVMVKLYPNMTAVLLHNTQLDQRKIKHPTALGLEVGQEIQVKYFGRDPADGRMRLSRKVLQSPATTVVRTLNDRSSIVMGEPISQSSSNSQ
modifications: full-length HA tag
notes: plasmid expressing full-length HA-tagged hPNPase^OLD-35 protein, in vitro translated for RNA degradation assays
For B3, the “degradation of c-myc mRNA” value (c-myc mRNA) was “significant degradation”.

B4: ΔRPH1 deletion mutant of hPNPase^OLD-35 (a.a. 183-783) with C-terminal HA tag (enzyme)
chain: PWNGPVGAVRIGIIDGEYVVNPTRKEMSSSTLNLVVAGAPKSQIVMLEASAENILQQDFCHAIKVGVKYTQQIIQGIQQLVKETGVTKRTPQKLFTPSPEIVKYTHKLAMERLYAVFTDYEHDKVSRDEAVNKIRLDTEEQLKEKFPEADPYEIIESFNVVAKEVFRSIVLNEYKRCDGRDLTSLRNVSCEVDMFKTLHGSALFQRGQTQVLCTVTFDSLESGIKSDQVITAINGIKDKNFMLHYEFPPYATNEIGKVTGLNRRELGHGALAEKALYPVIPRDFPFTIRVTSEVLESNGSSSMASACGGSLALMDSGVPISSAVAGVAIGLVTKTDPEKGEIEDYRLLTDILGIEDYNGDMDFKIAGTNKGITALQADIKLPGIPIKIVMEAIQQASVAKKEILQIMNKTISKPRASRKENGPVVETVQVPLSKRAKFVGPGGYNLKKLQAETGVTISQVDEETFSVFAPTPSVMHEARDFITEICKDDQEQQLEFGAVYTATITEIRDTGVMVKLYPNMTAVLLHNTQLDQRKIKHPTALGLEVGQEIQVKYFGRDPADGRMRLSRKVLQSPATTVVRTLNDRSSIVMGEPISQSSSNSQYPYDVPDYA
notes: also called Ad.ΔRPH1; pΔRPH1
With B4 the “degradation of c-myc mRNA” value (c-myc mRNA) was “significant degradation” and the binding result [1] was “no binding”.
